This is an account of results in patent US20110142761A1 (AbbVie / Abbott, published 2011).

First the molecules themselves.
B1: humanized anti-human IL-1β antibody 1B12.7 (antibody, V domains shown)
VH: EVQLVESGGGLVQPGGSLRLSCAVSGFTLSDYGVSWIRQAPGKGLEWLGLIWGGGDTYYNSPLKSRLTISKDNSKSTVYLQMNSLRAEDTAVYYCAKQRTLWGYDLYGMDYWGQGTLVTVSS
VL: DTVVTQSPAFLSVTPGEKVTITCITSTDIDVDMNWYQQKPDQPPKLLISQGNTLRPGVPSRFSSSGSGTDFTFTISSLEAEDAATYYCLQSDNLPLTFGQGTKLEIK
notes: Cloned into IgG expression vectors and made as full-length humanized antibody; also called h1B12VH.2a/h1B12VL.2a; combination 7
B2: humanized anti-human IL-1β antibody 1B12.2 (antibody, V domains shown)
VH: EVQLQESGPGLVKPSETLSLTCTVSGFSLSDYGVSWIRQPPGKGLEWLGLIWGGGDTYYNSPLKSRLTISKDNSKSQVSLKLSSVTAADTAVYYCAKQRTLWGYDLYGMDYWGQGTLVTVSS
VL: ETTVTQSPSSLSASVGDRVTITCITSTDIDVDMNWYQQKPGKPPKLLISQGNTLRPGVPSRFSSSGSGTDFTFTISSLQPEDFATYYCLQSDNLPLTFGQGTKLEIK
notes: Cloned into IgG expression vectors and made as full-length humanized antibody; also called h1B12VH.1a/h1B12VL.1b; combination 2
B3: humanized anti-human IL-1β antibody 1B12.6 (antibody, V domains shown)
VH: B1 VH
VL: B2 VL
B4: humanized anti-human IL-1β antibody 1B12.3 (antibody, V domains shown)
VH: B2 VH
VL: B1 VL
B5: humanized anti-human IL-1β antibody 1B12.1 (antibody, V domains shown)
VH: B2 VH
VL: B2 VL with E1D, T3Q
B6: humanized anti-human IL-1β antibody 1B12.4 (antibody, V domains shown)
VH: B2 VH
VL: B1 VL with D1E, V3T
notes: Cloned into IgG expression vectors and made as full-length humanized antibody; also called h1B12VH.1a/h1B12VL.2b; combination 4
B7: humanized anti-human IL-1β antibody 1B12.5 (antibody, V domains shown)
VH: B1 VH
VL: B2 VL with E1D, T3Q
notes: Cloned into IgG expression vectors and made as full-length humanized antibody; also called h1B12VH.2a/h1B12VL.1a; combination 5
B8: humanized anti-human IL-1β antibody 1B12.8 (antibody, V domains shown)
VH: B1 VH
VL: B1 VL with D1E, V3T
notes: Cloned into IgG expression vectors and made as full-length humanized antibody; also called h1B12VH.2a/h1B12VL.2b; combination 8

Substitutions are numbered along the chain they refer to.

For the first assay, the target named is T1, human IL-1β (human, UniProt P01584 117-269). Description: cell-based or functional assay.
With B1, the “Potency on Human IL-1β IC50 (pM); inhibition of IL-1β-induced IL-8 production by MRC-5 cells” value turned out to be 581 pM.

As for B2, the “Potency on Human IL-1β IC50 (pM); inhibition of IL-1β-induced IL-8 production by MRC-5 cells” value turned out to be 146 pM.

With B3, the “Potency on Human IL-1β IC50 (pM); inhibition of IL-1β-induced IL-8 production by MRC-5 cells” value was 378 pM.

B4: the “Potency on Human IL-1β IC50 (pM); inhibition of IL-1β-induced IL-8 production by MRC-5 cells” value was 303 pM.

As to B5, the “Potency on Human IL-1β IC50 (pM); inhibition of IL-1β-induced IL-8 production by MRC-5 cells” value was found to be 151 pM.

For B6, the “Potency on Human IL-1β IC50 (pM); inhibition of IL-1β-induced IL-8 production by MRC-5 cells” value came out at 597 pM.

Consider B7, for which the “Potency on Human IL-1β IC50 (pM); inhibition of IL-1β-induced IL-8 production by MRC-5 cells” value is 319 pM.

For the molecule B8, the “Potency on Human IL-1β IC50 (pM); inhibition of IL-1β-induced IL-8 production by MRC-5 cells” value amounted to 484 pM.

The target of a further assay is T1, human IL-1β. Description: SPR (Biacore 3000), antibody captured, human IL-1β as analyte, 25 C. How it is done: The BIACORE® assay (Biacore, Inc., Piscataway, N.J.) determines the affinity of antibodies with kinetic measurements of on-, off-rate constants. Binding of antibodies to recombinant purified human IL-1β was determined by surface plasmon resonance-based measurements with a Biacore™ 3000 instrument (Biacore™ AB, Uppsala, Sweden) using running HBS-EP (10 mM HEPES [pH 7.4], 150 mM NaCl, 3 mM EDTA, and 0.005% surfactant P20) at 25° C. All chemicals were obtained from Biacore® AB (Uppsala, Sweden) unless otherwise stated. Approximately 5,000 RU of goat anti-mouse IgG, (Fcγ), fragment specific polyclonal antibody (Pierce Biotechnology Inc, Rockford, Ill.) diluted in 10 mM sodium acetate (pH 4.5) was directly immobilized across a CM5 research grade biosensor chip using a standard amine coupling kit according to manufacturer's instructions and procedures at 25 μg/ml. Unreacted moieties on the biosensor surface were blocked with ethanolamine. Modified carboxymethyl dextran surface in flowcell 2 and 4 was used as a reaction surface. Unmodified carboxymethyl dextran without goat anti-mouse IgG in flow cell 1 and 3 was used as the reference surface. For kinetic analysis, rate equations derived from the 1:1 Langmuir binding model were fitted simultaneously to association and dissociation phases of all eight injections (using global fit analysis) with the use of Biaevaluation 4.0.1 software. Purified antibodies were diluted in HEPES-buffered saline for capture across goat anti-mouse IgG specific reaction surfaces. Mouse antibodies to be captured as a ligand (25 μg/ml) were injected over reaction matrices at a flow rate of 5 μl/minute. The association and dissociation rate constants, kₒₙ (unit M⁻¹s⁻¹) and koff (unit s⁻¹) were determined under a continuous flow rate of 25 μl/minute. Rate constants were derived by making kinetic binding measurements at ten different antigen concentrations ranging from 10-200 nM. The equilibrium dissociation constant (unit M) of the reaction between antibodies and the target antigen was then calculated from the kinetic rate constants by the following formula: KD=koff/kₒₙ. Binding is recorded as a function of time and kinetic rate constants are calculated. In this assay, on-rates as fast as 10⁶M⁻¹s⁻¹ and off-rates as slow as 10⁻⁶s⁻¹ can be measured.
With B1, binding was put at a Kd of 0.284 nM, the koff came to 0.00164 s⁻¹ and the kon was 5.76e+06 M⁻¹ s⁻¹.

As for B2, the Kd stood at 0.147 nM, the koff turned out to be 0.0009 s⁻¹ and the kon amounted to 6.13e+06 M⁻¹ s⁻¹.

B6 showed a Kd of 0.161 nM, a koff of 0.00097 s⁻¹ and a kon of 6.01e+06 M⁻¹ s⁻¹.

On to B7, for which the Kd was determined as 0.231 nM, the dissociation rate constant (koff) stood at 0.00144 s⁻¹ and the kon came to 6.24e+06 M⁻¹ s⁻¹.

For B8, the Kd turned out to be 0.23 nM, the koff was determined as 0.00137 s⁻¹ and the kon amounted to 5.94e+06 M⁻¹ s⁻¹.

Another assay addresses T1, human IL-1β. The assay is described as follows: ELISA; antibody captured on anti-human Fc, biotinylated human IL-1β titrated. How it is done: To determine if anti-IL-1β mAbs bind to human IL-1β, ELISA plates (Nunc, MaxiSorp, Rochester, N.Y.) were incubated overnight at 4° C. with anti-human Fc antibody diluted in Pierce Coat buffer at 2 μg/ml (Jackson Immunoresearch, West Grove, Pa.). Plates were washed five times in washing buffer (PBS containing 0.05% Tween 20), and blocked for 1 hour at 25° C. with 200 μl per well superblock blocking buffer (Thermo scientific, #37515). Blocking buffer was removed by tapping plates, and 2 μg/ml of each antibody in PBS containing 10% superblock, 0.5% tween-20 was added to the wells at 100 μl per well and incubated at 25° C. for 1 hour. The wells were washed five times in 1×PBST, and 1 μg/ml biotinylated antigen was titrated at 1:6 serial dilutions (for a range of μg to pg in PBS containing 10% superblock, 0.05% tween 20). Each dilution of antigen was then added to the plates and incubated for 1 hour at 25° C. The wells were washed five times in 1×PBST and incubated for 1 hour at 25° C. with polyHRP streptavidin (KPL #474-3000, Gaithersburg, Md.). The wells were washed five times in 1×PBST, and 100 μl of ULTRA-TMB ELISA (Pierce, Rockford, Ill.) were added per well. Following color development the reaction was stopped with 1N HCL and absorbance at 450 nm was measured. The results are shown in Table 9, and the numerical value indicating binding of human anti-IL-1β antibodies to human IL-1β.
B1 had an EC50 of 0.0582 nM.

In turn, B2 displayed an EC50 of 0.0376 nM.

Take B6: it took 0.0378 nM to reach a half-maximal effect (EC50).

Molecule B7 displayed an EC50 of 0.0488 nM.

As for B8, the EC50 turned out to be 0.0479 nM.
